Test results: article PMC12102759

B1: ATXN2 peptide 911-926 (Ataxin-2), 16-mer library wild type / PABPC1 PABC (PABPC1 PABC domain, residues 544-623) (parent)
chain 1: KSTLNPNAKEFNPRSF
chain 2: PLTASMLASAPPQEQKQMLGERLFPLIQAMHPTLAGKITGMLLEIDNSELLHMLESPESLRSKVDEAVAVLQAHQAKEAA
B2: PIP5K1C peptide 640-655 (Phosphatidylinositol 4-phosphate 5-kinase type-1 gamma), 16-mer library wild type / TLN1 PTB (TLN1 Phosphotyrosine-binding (PTB) domain, residues 309-401) (parent)
chain 1: FPTDERSWVYSPLHYS
chain 2: GVSFFLVKEKMKGKNKLVPRLLGITKECVMRVDEKTKEVIQEWNLTNIKRWAASPKSFTLDFGDYQDGYYSVQTTEGEQIAQLIAGYIDIILK

Variants of: B1
Experiment: proteomic peptide phage display deep mutational scan (ProP-PD DMS): M13 P8 16-mer library selected against immobilised GST-tagged bait for four days (rounds), NGS of the eluted pools per day and pseudo-replica
Details: with PABPC1 PABC (PABPC1 PABC domain, residues 544-623); bait immobilised on MaxiSorp plates (10 µg), library pre-cleared on GST, 2 h binding at 4 °C, five washes; one round per day, days 1-4; value from days 2 and 3; scale: average fractional NGS count over selection days 2 and 3

screen value	Variant
0.000471	chain 1 KSTLNPNAKEFNPHSF [chain 1 R14H]
0.00158	chain 1 KSTLNPNAKEFNPASF [chain 1 R14A]
0.0017	chain 1 KSTLNPNAKEFNPGSF [chain 1 R14G]
0.000187	chain 1 KSTLNPNAKEFNPESF [chain 1 R14E]
0.000523	chain 1 KSTLNPNAKEFNPFSF [chain 1 R14F]
0	chain 1 KSTLNYNAKEFNPRSF [chain 1 P6Y]
0	chain 1 KSTLNANAKEFNPRSF [chain 1 P6A]
0.00101	chain 1 KSTLNVNAKEFNPRSF [chain 1 P6V]
0.000389	chain 1 KSTLNLNAKEFNPRSF [chain 1 P6L]
0.000875	chain 1 KSTLNINAKEFNPRSF [chain 1 P6I]
4.64e-05	chain 1 KSTLNHNAKEFNPRSF [chain 1 P6H]
0	chain 1 KSTLAPNAKEFNPRSF [chain 1 N5A]
2.4e-05	chain 1 KSTLSPNAKEFNPRSF [chain 1 N5S]
0	chain 1 KSTLQPNAKEFNPRSF [chain 1 N5Q]
0	chain 1 KSTLDPNAKEFNPRSF [chain 1 N5D]
0.031	chain 1 KSTLNPNAKEFNVRSF [chain 1 P13V]
0.00243	chain 1 KSTLNPNAKEFNGRSF [chain 1 P13G]
0	chain 1 KSTLNPNAKEFNMRSF [chain 1 P13M]
1.02e-05	chain 1 KSTLNPNAKEFNTRSF [chain 1 P13T]
0	chain 1 KSTLNPNAKEFNHRSF [chain 1 P13H]
0.000246	chain 1 KSTLNPNAKEFNERSF [chain 1 P13E]
0.00338	chain 1 KSTLNPNAKEFNQRSF [chain 1 P13Q]

screen value	Variant
0.000517	chain 1 KSTLNPNAKEFNIRSF [chain 1 P13I]
0.00026	chain 1 KSTLNPNAKEFNLRSF [chain 1 P13L]
0.000164	chain 1 KSTLNPNAKEFNYRSF [chain 1 P13Y]
0.000637	chain 1 KSTLNPNAKEFNWRSF [chain 1 P13W]
0.000212	chain 1 KSTLNPNAKEFNARSF [chain 1 P13A]
0.000178	chain 1 KSTLNPNAKEFNNRSF [chain 1 P13N]
1.92e-05	chain 1 KSTLNPNAKEFNDRSF [chain 1 P13D]
0.00012	chain 1 KSTLNPNAKEFNFRSF [chain 1 P13F]
0.000158	chain 1 KSTLNPNAKEWNPRSF [chain 1 F11W]
0.000235	chain 1 KSTLNPNAKEYNPRSF [chain 1 F11Y]
0	chain 1 KSTLNPNAKEVNPRSF [chain 1 F11V]
0.000331	chain 1 KSTLNPEAKEFNPRSF [chain 1 N7E]
0.000441	chain 1 KSTLNPLAKEFNPRSF [chain 1 N7L]
0.00577	chain 1 KSTLNPIAKEFNPRSF [chain 1 N7I]
0	chain 1 KSTLNPWAKEFNPRSF [chain 1 N7W]
0.000455	chain 1 KSTLNPSAKEFNPRSF [chain 1 N7S]
0.000764	chain 1 KSTLNPDAKEFNPRSF [chain 1 N7D]
1.57e-05	chain 1 KSTLNPTAKEFNPRSF [chain 1 N7T]
0.000289	chain 1 KSTLNPMAKEFNPRSF [chain 1 N7M]
0.000449	chain 1 KSTLNPQAKEFNPRSF [chain 1 N7Q]
0.000181	chain 1 KSTLNPVAKEFNPRSF [chain 1 N7V]
5.67e-05	chain 1 KSTLNPYAKEFNPRSF [chain 1 N7Y]

screen value	Variant
5.23e-05	chain 1 KSTLNPRAKEFNPRSF [chain 1 N7R]
0.000328	chain 1 KSTLNPHAKEFNPRSF [chain 1 N7H]
0.00073	chain 1 KSTLNPFAKEFNPRSF [chain 1 N7F]
0	chain 1 KSTLNPGAKEFNPRSF [chain 1 N7G]
0.000105	chain 1 KSTLNPAAKEFNPRSF [chain 1 N7A]
0.000101	chain 1 KSTLNPNAAEFNPRSF [chain 1 K9A]
0.00168	chain 1 KSTLNPNAHEFNPRSF [chain 1 K9H]
0.0153	chain 1 KSTLNPNAIEFNPRSF [chain 1 K9I]
0.001	chain 1 KSTLNPNAQEFNPRSF [chain 1 K9Q]
0.000884	chain 1 KSTLNPNAYEFNPRSF [chain 1 K9Y]
0.00284	chain 1 KSTLNPNALEFNPRSF [chain 1 K9L]
0.0042	chain 1 KSTLNPNAMEFNPRSF [chain 1 K9M]
0.00121	chain 1 KSTLNPNAREFNPRSF [chain 1 K9R]
0.000868	chain 1 KSTLNPNATEFNPRSF [chain 1 K9T]
0.000159	chain 1 KSTLNPNAPEFNPRSF [chain 1 K9P]
0.0022	chain 1 KSTLNPNASEFNPRSF [chain 1 K9S]
0.000242	chain 1 KSTLNPNAGEFNPRSF [chain 1 K9G]
0.000915	chain 1 KSTLNPNAFEFNPRSF [chain 1 K9F]
0.00453	chain 1 KSTLNPNANEFNPRSF [chain 1 K9N]
0.000277	chain 1 KSTLNPNADEFNPRSF [chain 1 K9D]
0.00113	chain 1 KSTLNPNAEEFNPRSF [chain 1 K9E]
0.000108	chain 1 KSTLNPNAKEFNPRST [chain 1 F16T]

screen value	Variant
0.000158	chain 1 KSTLNPNAKEFNPRSH [chain 1 F16H]
0.000892	chain 1 KSTLNPNAKEFNPRSV [chain 1 F16V]
0.00041	chain 1 KSTLNPNAKEFNPRSA [chain 1 F16A]
0.00151	chain 1 KSTLNPNAKEFNPRSL [chain 1 F16L]
0.000134	chain 1 KSTLNPNAKEFNPRSS [chain 1 F16S]
0.000103	chain 1 KSTLNPNAKEFNPRSD [chain 1 F16D]
0.000241	chain 1 KSTLNPNAKEFNPRSN [chain 1 F16N]
8.6e-05	chain 1 KSTLNPNAKEFNPRSW [chain 1 F16W]
0.000515	chain 1 KSTLNPNAKEFNPRSY [chain 1 F16Y]
0.000149	chain 1 KSTLNPNAKEFNPRSM [chain 1 F16M]
0.000285	chain 1 KSTLNPNAKEFNPRSI [chain 1 F16I]
0.000222	chain 1 KSTLNPNVKEFNPRSF [chain 1 A8V]
0	chain 1 KSTLNPNSKEFNPRSF [chain 1 A8S]
0	chain 1 KSTLNPNIKEFNPRSF [chain 1 A8I]
0	chain 1 KSTLNPNRKEFNPRSF [chain 1 A8R]
0.000717	chain 1 KSTLNPNAKHFNPRSF [chain 1 E10H]
0	chain 1 KSTLNPNAKRFNPRSF [chain 1 E10R]
0	chain 1 KSTLNPNAKSFNPRSF [chain 1 E10S]
0.000349	chain 1 KSTLNPNAKVFNPRSF [chain 1 E10V]
0	chain 1 KSTLNPNAKQFNPRSF [chain 1 E10Q]
0.000321	chain 1 KSTLNPNAKTFNPRSF [chain 1 E10T]
0	chain 1 KSTLNPNAKDFNPRSF [chain 1 E10D]

screen value	Variant
0	chain 1 KSTFNPNAKEFNPRSF [chain 1 L4F]
0	chain 1 KSTYNPNAKEFNPRSF [chain 1 L4Y]
0.000137	chain 1 KSTMNPNAKEFNPRSF [chain 1 L4M]
0.00267	chain 1 KSTLNPNAKEFVPRSF [chain 1 N12V]
0.000277	chain 1 KSTLNPNAKEFGPRSF [chain 1 N12G]
0.000365	chain 1 KSTLNPNAKEFQPRSF [chain 1 N12Q]
0.000774	chain 1 KSTLNPNAKEFEPRSF [chain 1 N12E]
0.00161	chain 1 KSTLNPNAKEFAPRSF [chain 1 N12A]
0.00106	chain 1 KSTLNPNAKEFMPRSF [chain 1 N12M]
0.000112	chain 1 KSTLNPNAKEFSPRSF [chain 1 N12S]
0.00012	chain 1 KSTLNPNAKEFDPRSF [chain 1 N12D]
0.000122	chain 1 KSTLNPNAKEFKPRSF [chain 1 N12K]
0	chain 1 KSTLNPNAKEFPPRSF [chain 1 N12P]
0.000678	chain 1 KSTLNPNAKEFFPRSF [chain 1 N12F]
0.00202	chain 1 KSTLNPNAKEFWPRSF [chain 1 N12W]
0	chain 1 KSTLNPNAKEFLPRSF [chain 1 N12L]
0.000518	chain 1 KSTLNPNAKEFHPRSF [chain 1 N12H]
0.000331	chain 1 KSTLNPNAKEFTPRSF [chain 1 N12T]
0.000365	chain 1 KSTLNPNAKEFIPRSF [chain 1 N12I]

Variants of: B2
Experiment: as above
Details: with TLN1 PTB (TLN1 Phosphotyrosine-binding (PTB) domain, residues 309-401); bait immobilised on MaxiSorp plates (10 µg), library pre-cleared on GST, 2 h binding at 4 °C, five washes; one round per day, days 1-4; value from days 2 and 3; keep out of graded; scale: average fractional NGS count over selection days 2 and 3

screen value	Variant
0.000334	chain 1 FPTDERSWSYSPLHYS [chain 1 V9S]
